# Paper PMC5947639
# Columns and labels:
# [1] = target: MafR_(V583), untagged MafR protein from Enterococcus faecalis V583 (Enterococcus faecalis V583); experiment: AUC
# [2] = target: MafR_(V583), untagged MafR protein from Enterococcus faecalis V583 (Enterococcus faecalis V583); experiment: SEC
substance,measurement,setting,value
"MafR_(V583), untagged MafR protein from Enterococcus faecalis V583 (natural protein)",stoichiometry N,[1],2
same,stoichiometry N,[2],2
